The test addresses T1, PAK4cat (Homo sapiens, UniProt O96013).
T1 construct: PAK1 (1-545) and PAK4 (286-591), respectively; 6His (N); made in house; host or cells: Escherichia coli BL21-CodonPlus(DE3)
The experiment in a line: In vitro kinase assay, phosphorylation of GST-Raf13 by PAK4cat. The settings on record: in vitro, FIG. 1d. The format is biochemical. As to the method:
Purified PAK1 or PAK4 (50 nM in 25-50 μl) were incubated with 10 μM GST-Raf1S338 peptide in 10 μM ATP (2 μCi of γ32P ATP) of kinase buffer (25 mM Hepes, pH 7.3, 0.1% Triton-X100, 50 mM KCl, 10 mM MgCl2, 1 mM DTT) at 30° C. for 20 min. Samples were analysed by SDS-polyacrylamide gel electrophoresis, or adsorption of the GST substrate mix onto PVDF membranes, followed by extensive washing to remove free γ32P-ATP. The synthetic peptides of 95% purity, as determined by HPLC and MS analyses (GenScript), were soluble in aqueous PBS. Stock solutions (10 mM) were quantified via calculated extinction coefficients and absorbance measurements at 280 nm and stored at −80° C. The diluted peptides were incubated at the indicated concentrations with the kinase on ice (10 min) before addition of γ32P ATP and subsequent incubation at 30° C. The synthetic peptide array (Jerini Biotools) was phosphorylated in situ as described previously.

T1 sequence (O96013 286-591): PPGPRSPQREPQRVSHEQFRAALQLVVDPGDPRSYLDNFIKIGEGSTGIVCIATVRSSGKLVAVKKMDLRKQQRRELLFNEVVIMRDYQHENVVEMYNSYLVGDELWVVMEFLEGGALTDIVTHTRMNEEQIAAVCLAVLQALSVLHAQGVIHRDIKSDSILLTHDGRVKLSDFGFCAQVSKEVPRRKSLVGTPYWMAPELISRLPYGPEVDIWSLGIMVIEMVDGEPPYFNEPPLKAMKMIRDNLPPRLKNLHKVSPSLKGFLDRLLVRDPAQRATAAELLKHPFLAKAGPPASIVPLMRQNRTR

B1: Inka1: human Inka1, endogenous protein inhibitor of PAK4 (protein)
chain: MDMHSARLDSFLSQLRWELLCGRDTGSPSMPGPLQPTSQTGPDVQPSHQLRASGALEEDSVCCVEEEEEEEEEAVVTEDRDAALGGPREHALDWDSGFSEVSGSTWREEELPVSQRPAPSAQPLRRQCLSVSGLPMPSRAPVASVPPVHHPRPKSTPDACLEHWQGLEAEDWTAALLNRGRSRQPLVLGDNCFADLVHNWMELPETGSEGGDGGGHRARARPPQFLLGLSEQLRRRLARARRTAMAGKRLSCPPRPEPELPADVSRFAALMSCRSRQPIICNDVS
modifications: left off: small tags and cut ends
As a reminder, the Ki is a measure of affinity in units of concentration, obtained from inhibition or displacement. In turn, B1 had an inhibitory constant (Ki) of roughly 30 nM.

The values are drawn from US10822723B2, “Fusion protein crystal comprising a moiety” (Agency for Science, Technology and Research, priority 2015, dated 2020).
